Source: patent EP4702986A1, “POLYPEPTIDE AND USE THEREOF” (Biocells (Beijing) Biotech Co., Ltd., priority 2023, dated 2024)
Where “and” joins values, the source holds several entries; their conditions need not be identical. Equal values may be shown once. Read-outs that look alike come from different tables or passages of the source. Numbered stars: 1 amine (or outer) side, 2 acyl side, 3 side chain; on linkers, the order of the positions; unused ones are H or OH. Square brackets hold non-standard residues; d marks the D form. Side chains are listed from the residue outwards. Ends that are not written are not given here. * marks the point of attachment. C18 diacid = O=C(O)CCCCCCCCCCCCCCCCC(=O)*; γGlu = O=C(O)[C@H](CCC(=O)[*:2])N[*:1]; Hexadienoyl(2E,4E) = C/C=C/C=C/C(=O)*; NMeI = CC[C@H](C)[C@H](NC)C(=O)O; NMeL = CN[C@@H](CC(C)C)C(=O)O; Fumaroyl = O=C(O)/C=C/C(=O)*; Suc = O=C(CCC(=O)[*:2])[*:1]; AEEA = NCCOCCOCC(=O)O

Molecular target: T1, human ETB receptor (Homo sapiens, UniProt P24530)
T1 construct: expressed in transfected cells; host or cells: 293T-17 cells, transient transfection
T1 sequence (P24530 27-442): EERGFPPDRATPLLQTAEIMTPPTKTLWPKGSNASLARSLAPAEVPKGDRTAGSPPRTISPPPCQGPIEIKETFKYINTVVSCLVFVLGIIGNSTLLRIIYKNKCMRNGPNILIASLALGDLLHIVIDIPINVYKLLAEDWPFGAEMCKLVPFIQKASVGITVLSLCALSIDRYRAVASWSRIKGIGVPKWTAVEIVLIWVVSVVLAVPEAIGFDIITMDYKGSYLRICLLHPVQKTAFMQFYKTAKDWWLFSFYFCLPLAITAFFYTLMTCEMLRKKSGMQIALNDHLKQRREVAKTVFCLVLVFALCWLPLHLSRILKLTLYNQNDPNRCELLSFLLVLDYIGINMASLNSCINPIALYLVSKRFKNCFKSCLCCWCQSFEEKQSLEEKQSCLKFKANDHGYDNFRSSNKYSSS
Test: Screening of polypeptides for activity on human ETB receptor (IP-One Gq kit, % of positive control IRL1620)
Type: cell-based
Method: 293T-17 cells were seeded at a density of 650,000 cells per well in a 6-well plate and cultured overnight in an incubator at 37°C and 5% CO2. Afterward, the cells were transfected with an expression vector, PCDNA3.1-hETB which contained a human ETB receptor gene, at a plasmid concentration of 2.5 µg per well. The cells were further cultured for 48 hours, and green fluorescence expression was observed under a fluorescence microscope. The cells were then digested with trypsin and counted. The activity of compounds on the human ETB receptor was determined with the IP-One Gq kit from Cisbio Bioassays. The cells were suspended in Stim Buffer provided in the kit and the cell suspension was added to a 96-well detection plate at 7 µL cell suspension (containing 30,000 cells) per well. The polypeptides to be screened for activity (prepared according to the Preparation Example of the invention) and polypeptide IRL1620 as positive control were dissolved in Stim B to be at a concentration of 2×, and 7 µL was added to the test cells, while 7 µL of PBS solution was added to the cells in the negative control wells. IRL1620 was used as the positive control polypeptide. The plate was sealed and incubated at 37°C for 1 hour in a cell culture incubator. Test wells, positive control wells, and PBS control wells were each added with 3 µL of IP1 d2 working solution and 3 µL of IP1 Tb cryptotate Antibody working solution. The plate was then sealed and incubated in the dark at room temperature (25°C±5°C) for 1 hour. The plate seal was removed, and the […] at 665 nm and 620 nm was measured with an ID5 microplate reader. The ratio of the acceptor emission signal to the donor emission signal, i.e., the value of (signal at 665 nm/signal at 620 nm)×10^4, was calculated for each well. With F1 representing the average value of values of signal at 665 nm/signal at 620 nm determined for the test sample at a specific concentration, F2 representing the average value of values of signal at 665 nm/signal at 620 nm determined for the positive control IRL1620 at the same concentration, and T1 representing the average value of values of signal at 665 nm/signal at 620 nm determined for the PBS negative control, the percentage of activity of the test polypeptide sample relative to the positive control sample IRL1620 is equal to (F1-T1)×100/(F2-T1). hETB sequence (NCBI accession number NM_000115.5).

Row | Substance | hETBR agonist activity, percentage of activity relative to IRL1620 | hETBR agonist activity, percentage of activity relative to IRL1620 (@10nM) | hETBR agonist activity, percentage of activity relative to IRL1620 (@1µM) [%@1µM] | hETBR agonist activity, percentage of activity relative to IRL1620 (@10µM) [%@10µM]
1 | Fum-DEEE(Biotin)VYFAHKDIIW [BX-16] | 22.24%@1µM and 14.10%@10µM | – | – | –
2 | Fum-DEEAVYFAHOrn(-AEEA-AEEA-γE-ODDA)DIIW [BX-51] | 37.60%@100nM | 47.83%@10nM | – | –
3 | Fum-D cyclo(EEAK)YFAHK(-γE-AEEA-AEEA-ODDA)D(2-Abu)IW [BX-104] | -21.93%@100nM | -1299.77%@10nM | – | –
4 | Suc-DEEAVYFAHL(N-Me)DIIW (Suc-DEEAVYFAH[NMeL]; not fully specified (C-terminus)) [BX-26] | 30.58%@100nM | 11.94%@10nM | – | –
5 | Fum-DEEAK(-γE-AEEA-AEEA-ODDA)YFAHLDIIW [BX-67] (Fum-DEEAK with lipidated linker N-terminal) | 46.98%@100nM | 2.68%@10nM | – | –
6 | MeO-Fum-D cyclo(EEAK)YFAHLD(2-Abu)IW [BX-65] | 99.24%@100nM | 59.02%@10nM | – | –
7 | Fum-DEEEVYFAHK(-AEEA-AEEA-γE - ODDA)DIIW (Fumaroyl-DEEEVYFAHK([AEEA-AEEA-γGlu-C18 diacid])DIIW) [BX-60] | 4.84%@100nM | -15.72%@10nM | – | –
8 | Fum-DEEAVYFAHK(-γE-AEEA-AEEA-ODDA)DVIW (Fumaroyl-DEEAVYFAHK([γGlu-AEEA-AEEA-C18 diacid])DVIW) [BX-101] | 30.96% | – | – | –
9 | Fum-DEEAVYFAHKDVIW (Fumaroyl-DEEAVYFAHKDVIW) [BX-23] | 89.28%@100nM | 26.12%@10nM | – | –
10 | Fum-DEEAK(-γE-AEEA-AEEA-ODDA)YFAHLDIIW [BX-109] (Fum-DEEAK with lipidated linker N-terminal) | 74.1%@100nM | -1095.4%@10nM | – | –
11 | Fum-DEEAVYFAHLDVIW (Fumaroyl-DEEAVYFAHLDVIW) [FBX-7] | 99.81%@100nM | 91.89%@10nM | – | –
12 | MeO-Fum-DEEAVYFAHK(-γE-AEEA-AEEA-ODDA)DIIW ({MeO‑Fum}-DEEAVYFAHK([γGlu-AEEA-AEEA-C18 diacid])DIIW) [BX-75] | -10.59%@100nM | 14.68%@10nM | – | –
13 | Suc-DEEAVYFAHLDI(N-Me)IW (Suc-DEEAVYFAHLDI[NMeI]W) [BX-25] | 28.86%@100nM | 19.19%@10nM | – | –
14 | SA-DEEAVYFAHLDIIW ({Hexadienoyl(2E,4E)}-DEEAVYFAHLDIIW) [BX-111] | 64.98%@100nM | -11.84%@10nM | – | –
15 | Fum-D cyclo(EEAK)YFAHLDIIW (Fumaroyl-DEEAKYFAHLDIIW; lactam (positions not given here)) [BX-102] | 155.47% | 113.81% | – | –
16 | Fum-DEEAKYFAHLDVIW (Fumaroyl-DEEAKYFAHLDVIW) [BX-106] | 117.63%@100nM | 117.57%@10nM | – | –
17 | Fum-DEEAKYFAHK(-γE-AEEA-AEEA-ODDA)DIIW (Fumaroyl-DEEAKYFAHK([γGlu-AEEA-AEEA-C18 diacid])DIIW) [BX-107] | 100.37%@100nM | 50.48%@10nM | – | –
18 | Fum-DEEAVYFK(-γE-AEEA-AEEA-ODDA)HLDIIW (Fumaroyl-DEEAVYFK([γGlu-AEEA-AEEA-C18 diacid])-{H2N-Leu-Asp-Ile-Ile-Trp}) [BX-68] | -18.64%@100nM | -39.42%@10nM | – | –
19 | Fum-DEEAKYFAHLDIIW (Fumaroyl-DEEAKYFAHLDIIW) [BX-105] | 253.05%@100nM | 64.66%@10nM | – | –
20 | Fum-DEEAK(-γE-AEEA-AEEA-ODDA)YFAHLDVIW (Fum-DEEAK with lipidated linker N-terminal) [BX-110] | 132.61%@100nM | 138.99%@10nM | – | –
21 | Fum-DEEAVYFAHL(N-Me)DIIW (Fumaroyl-DEEAVYFAH[NMeL]; not fully specified (C-terminus)) [BX-28] | -10.73%@100nM | 8.27%@10nM | – | –
22 | Fum-DEEAVYFAHL(N-Me)DI(N-Me)IW (Fumaroyl-DEEAVYFAH[NMeL]; not fully specified (C-terminus)) [BX-29] | 6.51%@100nM | 15.61%@10nM | – | –
23 | Suc-DEEAVYFAHOrn(-AEEA-AEEA-γE - ODDA)DIIW [BX-61] | 40.94%@100nM | 13.97%@10nM | – | –
24 | Fum-DEEAKYFAHK(-γE-AEEA-AEEA-ODDA)DVIW (Fumaroyl-DEEAKYFAHK([γGlu-AEEA-AEEA-C18 diacid])DVIW) [BX-108] | 9.56%@100nM | -1185.11%@10nM | – | –
25 | Fum-D cyclo(EEAK)YFAHK(-γE-AEEA-AEEA-ODDA)DIIW [BX-103] | 14.93%@100nM | 45.51%@10nM | – | –
26 | Suc-DEEAVYFAHL(N-Me)DI(N-Me)IW (Suc-DEEAVYFAH[NMeL]; not fully specified (C-terminus)) [BX-27] | 0.42%@100nM | 1.72%@10nM | – | –
27 | Fum-DEE(C16)AVYFAHLDIIW ({Fumaroyl-Asp-Glu-E(C16)}-AVYFAHLDIIW; not fully specified; printed as Fum-DEE(C16)AVYFAHLDIIW) [BX14-1] | – | – | 15.80 | 18.63
